From US20230131339A1, “EPI-X4 BASED PEPTIDES AND DERIVATIVES THEREOF” (Universitaet Ulm, priority 2020, published 2023)
Several values for one entry are separate records, joined by “and”; a condition that tells them apart may be missing. Identical values can stand only once. Like-named read-outs stand apart in the source and are kept apart here. Where a SMILES comes first, the peptide text is derived from it. Where no end group is shown, it is not given here. Side-chain parts run from the residue outwards. [ ]: non-standard residue; d: D form. The star is where a group is joined. DOTA = O=C(O)CN1CCN(CC(=O)O)CCN(CC(=O)*)CCN(CC(=O)O)CC1; Stearoyl = CCCCCCCCCCCCCCCCCC(=O)*; Palmitoyl = CCCCCCCCCCCCCCCC(=O)*; Glu = glutamate linker

What was measured:
[1] = Lipophilicity, shake-flask method (n-octanol/PBS pH 7.4); type: physicochemical
Description: The hydrophilic/lipophilic character of the ^177Lu/^68Ga-labeled conjugates was determined by the “shake-flask” method. To a pre-saturated solution containing 500 μL of n-octanol and 500 μL of phosphate-buffered saline (PBS) at pH 7.4, 10 μL of 1 picomol ^177Lu/^68Ga-labeled conjugates was added. The solutions were vortexed for 1 h to reach equilibrium and then centrifuged (3000 rpm) for 10 min. Hundred μl of the sample was removed from each phase and measured in a γ-counter. The partition coefficient was calculated as the average of the logarithmic values (n=3) of the ratio between the radioactivity in the organic and the PBS phase. Results are means±standard deviation from a minimum of two separate experiments. ^177Lu/^68Ga-labeled Pentixather, which is a known CXCR4-directed endoradiotherapeutic agent, is used as reference molecule.

[2] = Stability of radiolabeled conjugates in buffer (radiochemical purity over time); type: physicochemical; conditions: NH4-acetate buffer pH 5.2, ethanol, room temperature
Description: The stability of ^177Lu/^68Ga-labeled DOTA-conjugated peptides in ammonium acetate buffer (0.4 M, pH 5.2) and sodium acetate buffer (0.2 M, pH 4-4.5) was assessed by determining the radiochemical purity (RCP) of each radiolabeled conjugate at different time points (0, 1, 2, 4, and 24 h for ^177Lu-complexes and at 0, 1 and 2 h for ^68Ga-complexes) at room temperature. For this, an aliquot of labeling solution was stored at room temperature. RP-HPLC injections were consecutively performed at the desired time points.
Radiolysis-induced instability of [^177Lu]Lu-labeled DOTA-conjugated peptides over time was tracked by determining the radiochemical purity (Table 3). Results are means±standard deviation from a minimum of two separate experiments.

[3] = Stability assay in human S9 liver fractions; conditions: with cofactors
Description: Further, the stability of peptides in human S9 liver fractions (in the presence of cofactors) was tested (FIG. 12). […] To simulate and predict hepatic metabolic clearance, peptides were added to human S9 liver fractions. […] For each peptide, three independent experiments were performed.
Stability assay in human S9 liver fractions. Pooled human liver S9 fractions were obtained from Thermo Fisher Scientific at a total protein concentration of 20 mg/ml. Fractions were stored in 25 μl aliquots at −80° C. For stability experiments, they were diluted to a final concentration of 0.5 mg/ml in Tris buffer. Cofactors (or buffer) were added immediately before start of the experiment (NADPH: 1 mM, UDPGA: 0.5 mM, GSH: 2.5 mM, PAPS: 0.05 mg/ml, Sigma Aldrich). The reaction was started by adding peptides or compounds at a concentration of 20 μM to the mixture and gentle agitation at 37° C. Determination of enzymatic stability was performed as described for plasma.

[4] = Functional stability assay in human plasma
Description: Fourth, the stability of peptides in human plasma and whole human blood was tested (FIG. 4). The functional stability of EPI-X4 (SEQ ID NO.: 1) derivatives was screened using a CXCR4 antibody-based screening approach. Peptides were diluted in full human plasma or blood (>99%) and the functional activity was then measured after either 2 hours or 8 hours and compared to a sample that was not incubated in plasma or blood.
In this test, the peptides were incubated in human plasma for a certain time period.
Stability assay. Whole blood was collected from healthy donors in EDTA tubes and directly used or subsequently centrifuged for 15 min at 2,500×g to obtain plasma. Plasma from 6 donors was pooled and stored in aliquots at −80° C. Compounds were 200-fold diluted in human plasma or whole human blood to reach final concentrations of 20 μM. The t=0 sample was immediately taken and stored at −80° C. Plasma/compound or blood/compound mixture was then transferred to 37° C. and shook at 350 rpm. At given time points samples were taken and stored at −80° C.°. For measuring the functional activity of the plasma/peptide samples, the mixtures were thawed and diluted in ice cold PBS. 12G5-APC antibody competition was then performed as described before. For blood/peptide functional stability, samples were thawed and centrifuged at 14,000 rpm to remove cells and debris. The supernatant was then diluted in PBS and 12G5-antibody competition assay was performed. After the 2 hours incubation, the cells were washed and 50 μl of 1-step-Fix/Lyse solution (Thermo Fisher #00-5333-54) was added for 15 minutes at room temperature. Afterwards cells were washed again and analyzed for bound antibody.

[5] = system: CXCL12-induced AKT signaling; assay: ERK/AKT signaling assay in SupT1 cells: AKT phosphorylation; type: cell-based; conditions: 10 μM
Summary of the method: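 SupT1 cells in 1% FCS medium preincubated 15 min at 37 °C with compound, then stimulated 2 min with CXCL12 (100 ng/ml final). PFA-fixed, methanol-permeabilized cells stained for phospho-ERK1/2 (Tyr204/Tyr187) or phospho-AKT (Ser473) and read by flow cytometry; two or three independent experiments in triplicate.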

[6] = system: CXCL12-induced ERK signaling; assay: ERK/AKT signaling assay in SupT1 cells: ERK phosphorylation; type: cell-based; conditions: 1 μM
Description: Third, the activity of the claimed EPI-X4 derivatives was tested by the effect on CXCL12/CXCR4-mediated ERK (Extracellular-signal Regulated Kinases) and AKT (a serine/threonine-protein kinase) signaling (FIG. 3). In that assay CXCR4 expressing cells are stimulated with the CXCR4 chemokine-ligand CXCL12, which subsequently leads to phosphorylation of ERK and AKT. Preincubation of cells with CXCR4-antagonists blocks those pathways. […] Two or three independent experiments were carried out in triplicates for each peptide in each assay. The error bars refer to the standard deviation.
ERK/AKT signaling assay. CXCL12 induced ERK and AKT phosphorylation was determined in SupT1 cells. For this, 100,000 cells were seeded per well in a 96-V well plate in 100 μl medium supplemented with 1% FCS. Cells were incubated for 2 hours at 37° C. before 5 μl of compounds were added. After 15 min incubation at 37° C. cells were stimulated by adding 5 μl CXCL12 diluted in PBS to reach a final concentration of 100 ng/ml. Cells were further incubated for 2 min before the reaction was stopped by adding 20 μl of 10% PFA. Cells were fixed for 15 min at 4° C. before PFA was removed and cells permeabilized by adding 100 μl ice cold methanol. After 15 min at 4° C. the methanol was removed, cells were washed and 30 μl primary antibody was added (phospho-p44/42 MAPK (Erk1) (Tyr204)/(Erk2) (Tyr187) (D1H6G) mouse mAb #5726; phosphor-Akt (Ser473) (193H12) rabbit mAb #4058 Cell Signaling) for 1 hour at 4° C. After the antibody was removed and cells were washed secondary antibody was added for 30 min. Cells were washed afterwards and subsequently analyzed by flow cytometry.

[7] = target: T1, CXC chemokine receptor type 4 (CXCR4) (human, UniProt P61073 1-352); assay: cell-based or functional assay
[8] = target: T1, CXC chemokine receptor type 4 (CXCR4); assay: antibody competition assay
Description: Antibody competition assay. Competition of compounds with antibody binding was performed on SupT1 cells. For that cells were washed in PBS containing 1% FCS and 50,000 cells were then seeded per well in a 96 V-well plate. Buffer was removed and plates were precooled at 4° C. […] The antibody was used at a concentration closed to its determined Kd. 15 μl compounds were then added to the cells and 15 μl antibody immediately afterwards. Plates were incubated at 4° C. in the dark for 2 hours. Afterwards cells were washed twice with PBS containing 1% FCS and fixed with 2% PFA. Antibody binding was analyzed by flow cytometry (FACS CytoFLEX; Beckman Coulter®).

[9] = target: T2, CXC chemokine receptor type 4 (CXCR4) (human, UniProt P61073 1-352); assay: 12G5 antibody competition
T2 chain: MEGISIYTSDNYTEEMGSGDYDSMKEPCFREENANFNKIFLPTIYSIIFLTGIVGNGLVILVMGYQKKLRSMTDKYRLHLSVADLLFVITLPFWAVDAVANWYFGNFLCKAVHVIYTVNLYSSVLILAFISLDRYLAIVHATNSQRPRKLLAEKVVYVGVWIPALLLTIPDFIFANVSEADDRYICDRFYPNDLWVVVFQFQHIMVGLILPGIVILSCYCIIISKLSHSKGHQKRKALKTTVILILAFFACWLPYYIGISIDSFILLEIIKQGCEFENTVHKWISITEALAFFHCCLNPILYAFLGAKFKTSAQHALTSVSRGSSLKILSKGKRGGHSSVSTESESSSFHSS

Molecule: [^177Lu]Lu-DOTA-JM#118: ^177Lu-labeled DOTA-JM #118 (SEQ ID NO.: 166) (ILRWSRK(DOTA)-NH2; also: 177Lu complex of DOTA)
- log DO/PBS pH7.4 [1]: −3.12 ± 0.43
- Radiochemical purity ([2]; time point 0 h): 99 ± 0%
- Radiochemical purity ([2]; time point 1 h): 98 ± 0%
- Radiochemical purity ([2]; time point 2 h): 97 ± 1%
- Radiochemical purity ([2]; time point 4 h): 95 ± 1%
- Radiochemical purity ([2]; time point 24 h): 80 ± 2%
- Radiochemical purity ([2]; time point 24 h, listed as [^177Lu]Lu-DOTA-JM #118): 80±2%

Molecule: [^177Lu]Lu-DOTA-K-JM#122: ^177Lu-labeled DOTA-K-JM #122 (SEQ ID NO.: 102) (ILRWSRKLPSVSK(DOTA); also: 177Lu complex of DOTA)
- log DO/PBS pH7.4 [1]: −3.23 ± 0.23
- log DO/PBS pH7.4 ([1]; listed as [^177Lu]Lu-DOTA-K-JM #122): −3.23±0.23
- Radiochemical purity ([2]; time point 0 h): 97 ± 0%
- Radiochemical purity ([2]; time point 1 h): 97 ± 0%
- Radiochemical purity ([2]; time point 2 h): 96 ± 1%
- Radiochemical purity ([2]; time point 4 h): 96 ± 1%
- Radiochemical purity ([2]; time point 24 h): 78 ± 1%
- Radiochemical purity ([2]; time point 24 h, listed as [^177Lu]Lu-DOTA-K-JM #207): 78±1%

Molecule: [^177Lu]Lu-DOTA-K-JM#21: ^177Lu-labeled DOTA-K-JM #21 (SEQ ID NO.: 101) (ILRWSRKLPCVSK(DOTA); also: 177Lu chelated)
- log DO/PBS pH7.4 [1]: −1.91 ± 0.24
- Radiochemical purity ([2]; time point 1 h): 93 ± 3%
- Radiochemical purity ([2]; time point 2 h): 92 ± 6%
- Radiochemical purity ([2]; time point 4 h): 90 ± 7%
- Radiochemical purity ([2]; time point 24 h): 62 ± 13%

Molecule: CC[C@@H](C)[C@@H](N)C(=O)N[C@@H](CC(C)C)C(=O)N[C@@H](CCCNC(=N)N)C(=O)N[C@@H](Cc1c[nH]c2ccccc12)C(=O)N[C@@H](CO)C(=O)N[C@@H](CCCNC(=N)N)C(=O)N[C@@H](CCCCN)C(N)=O [JM #173, d-ILRWSRK-NH2] (H-[dI]LRWSRK-NH2)
- remaining activity in human S9 liver fractions after 8 hours ([3]; 8 hours): about 14%
- remaining (relative) activity after 8 hours of plasma incubation ([4]; human plasma, 8 hours): 100%
- functional stability in human plasma (in words) ([4]; human, plasma): completely resistant to plasma enzymes

Molecule: CC[C@H](C)[C@H](N)C(=O)N[C@H](C(=O)N[C@@H](CCCNC(=N)N)C(=O)N[C@@H](Cc1c[nH]c2ccccc12)C(=O)N[C@@H](CO)C(=O)N[C@@H](CCCCN)C(=O)N[C@@H](CCCCN)C(=O)N[C@H](C(=O)N1CCC[C@H]1C(=O)N[C@@H](CS)C(=O)N[C@H](C(=O)N[C@@H](CO)C(=O)O)C(C)C)C(C)C)C(C)C [WSC02, reference compound] (H-IVRWSKKVPCVS-OH; C-terminus assumed)
- remaining activity in human S9 liver fractions after 2 hours ([3]; 2 hours): readily inactivated by liver enzymes
- remaining (relative) activity after 2 hours of plasma incubation ([4]; human plasma, 2 hours): completely inactive
- reduction of CXCL12-induced AKT signaling [5]: about 50%
- reduction of CXCL12-induced ERK signaling [6]: 20%

Molecule: [^177Lu]Lu-DOTA-K-JM#29: ^177Lu-labeled DOTA-K-JM #29 (SEQ ID NO.: 165) ([dL]LRWSRKMPCVSK(DOTA); also: 177Lu complex of DOTA)
- log DO/PBS pH7.4 [1]: −1.49 ± 0.29
- Radiochemical purity ([2]; time point 0 h): 98 ± 1%
- Radiochemical purity ([2]; time point 1 h): 96 ± 3%
- Radiochemical purity ([2]; time point 2 h): 92 ± 9%
- Radiochemical purity ([2]; time point 4 h): 90 ± 9%

Molecule: [dM]LRWSRKK-NH2 (not fully specified (residue 8)) [JM#197]
- IC50, HIV inhibition assay [7]: > 150 nM
- IC50 [8]: < 25 nM

Molecule: [dL]MRWSRKK-NH2 (not fully specified (residue 8)) [JM#195]
- IC50, HIV inhibition assay [7]: 50 nM to 150 nM (2×) and > 150 nM
- IC50 [8]: < 25 nM

Molecule: ILRWSRKLPCVS (not fully specified (residue 7)) [JM#198]
- IC50, HIV inhibition assay [7]: > 150 nM
- IC50 [8]: < 25 nM

Molecule: [dM]LRWSRK([Glu-Palmitoyl])-NH2 [JM#196]
- IC50 [9]: 31 nM
- IC50, HIV inhibition assay [7]: > 150 nM
- IC50 [8]: < 25 nM

B1: SEQ ID NO.: 164 (peptide)
peptide: ILRWSRK([Glu-Stearoyl])LPSVS
notes: derived from JM#198 by replacing the cysteine at position 10 by a serine; also called ILRWSRK(Glu-Ste)LPSVS
- IC50, HIV inhibition assay [7]: > 150 nM
- IC50 [8]: < 25 nM
